Test results: publication PMC3901934, “CAS directly interacts with vinculin to control mechanosensing and focal adhesion dynamics” (Cellular and Molecular Life Sciences: CMLS, 2013)

Molecular target: T1, Vin WT GFP (GFP-fused vinculin WT) (UniProt Q64727 1-1066)
T1 sequence (looked up): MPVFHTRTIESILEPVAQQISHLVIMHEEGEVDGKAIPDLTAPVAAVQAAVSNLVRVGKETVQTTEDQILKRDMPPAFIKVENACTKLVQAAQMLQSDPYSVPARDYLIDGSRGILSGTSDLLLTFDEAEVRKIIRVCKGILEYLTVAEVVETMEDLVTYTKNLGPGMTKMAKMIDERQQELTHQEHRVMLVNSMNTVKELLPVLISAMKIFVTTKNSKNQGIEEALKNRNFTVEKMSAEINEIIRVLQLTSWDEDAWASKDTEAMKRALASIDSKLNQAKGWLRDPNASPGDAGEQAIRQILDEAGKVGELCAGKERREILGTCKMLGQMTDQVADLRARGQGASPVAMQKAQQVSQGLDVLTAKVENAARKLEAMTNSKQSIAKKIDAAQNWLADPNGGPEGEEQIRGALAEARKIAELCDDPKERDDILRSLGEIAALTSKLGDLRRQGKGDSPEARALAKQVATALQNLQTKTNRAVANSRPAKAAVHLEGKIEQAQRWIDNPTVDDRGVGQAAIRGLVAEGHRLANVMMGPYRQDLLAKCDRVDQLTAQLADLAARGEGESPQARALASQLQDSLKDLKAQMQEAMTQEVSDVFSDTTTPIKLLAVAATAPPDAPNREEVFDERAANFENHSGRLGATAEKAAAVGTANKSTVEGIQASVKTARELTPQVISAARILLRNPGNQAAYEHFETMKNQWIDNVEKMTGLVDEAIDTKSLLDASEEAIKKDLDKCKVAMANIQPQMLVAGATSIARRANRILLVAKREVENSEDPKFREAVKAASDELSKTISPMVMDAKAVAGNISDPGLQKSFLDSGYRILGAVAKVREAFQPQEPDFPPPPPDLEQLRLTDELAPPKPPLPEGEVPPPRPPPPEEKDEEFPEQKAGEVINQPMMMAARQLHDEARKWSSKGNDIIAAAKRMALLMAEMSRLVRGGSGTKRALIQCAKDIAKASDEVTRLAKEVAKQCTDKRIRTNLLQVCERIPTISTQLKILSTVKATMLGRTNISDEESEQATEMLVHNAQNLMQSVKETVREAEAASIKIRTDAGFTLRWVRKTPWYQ
Experiment: cell-based or functional assay

B1: full-length CAS (in Vin-/- MEFs) (natural protein, mouse (endogenous in MEFs), UniProt Q61140 1-874, looked up)
chain: MTVPNVLAKALYDNVAESPDELSFRKGDIMTVLERDTQGLDGWWLCSLHGRQGIVPGNRLKILVGMYDKKPVGPGPGPPATPPQPQPSLPQGVHAPVPPASQYSPMLPTAYQPQSDNVYLVPTPSKTQQGLYQAPGPNPQFQSPPAKQTSTFSKQTPHHSFPSPATDLYQVPPGPGSPAQDIYQVPPSAGIGHDIYQVPPSLDTRGWEGTKPPAKVVVPTRVGQGYVYEAAQTEQDEYDTPRHLLAPGPQDIYDVPPVRGLLPNQYGQEVYDTPPMAVKGPNGRDPLLDVYDVPPSVEKGLLSSSHHSVYDVPPSVSKDVPDGPLLREETYDVPPAFAKPKPFDPTRHPLILAAPPPDSPAAEDVYDVPPPAPDLYDVPPGLRRPGPGTLYDVPRERVLPPEVADGSVVDDGVYAVPPPAEREAPTDGKRLSASSTGSTRSSQSASSLEVVVPGREPLELEVAVESLARLQQGVSTTVAHLLDLVGSASGPGGWRGTSEPQEPPAQDLKAAVAAVHGAVHELLEFARGAVSNATHTSDRTLHAKLSRQLQKMEDVYQTLVVHGQVLDSGRGSPGFTPEDLDRLVACSRAVPEDAKQLASFLHGNASLLFRRTKAPGPGPEGSSSLHPNPTDKASSIQSRPLPSPPKFTSQDSPDGQYENSEGGWMEDYDYVHLQGKEEFEKTQKELLERGNIMRQGKGQLELQQLKQFERLEQEVSRPIDHDLANWTPAQPLVPGRTGGLGPSDRQLLLFYLEQCEANLTTLTDAVDAFFTAVATNQPPKIFVAHSKFVILSAHKLVFIGDTLSRQAKAADVRSQVTHYSNLLCDLLRGIVATTKAAALQYPSPSAAQDMVDRVKELGHSTQQFRRVLGQLAAA
fold change of CAS Y410 phosphorylation after 20 % static stretch for 10 min, Vin-/- MEFs re-expressing WT vinculin: 2.4 fold
